Measurements published in patent publication US9803013B2, “Biological materials and uses thereof” (BioInvent International AB, priority 2005, dated 2017).
Each block holds one molecule with its values, some of them ahead of it.

Legend:
primary patient MM cells = assay: SCID-hu mouse model of multiple myeloma; type: in vivo
Method: Bone marrow cells (>20% plasma cells) from myeloma patients (two patients in experiment 1 [top panel] and two different patients in experiment 2 [lower panel]) were injected into transplanted human fetal bones of SCID-hu mice. Four weeks after myeloma cell inoculation mice were divided into four groups to yield similar mean hIgG levels between groups, each group comprising mice grafted with MM cells from the different patient donors used in the experiment, and twice weekly treatment with 2 mg/kg BI-505, 1 mg/kg bortezomib or 2 mg/kg control human IgG was started (arrow). […] Graphs show mean hIgG concentrations.
Primary human MM cells depend on interactions with bone marrow stromal cells to proliferate and survive. The SCID-hu mouse harbors a human microenvironment where primary patient MM cells proliferate and induce pathology similar to human clinical MM (Yaccoby et al., 1998). MM cell derived human IgG titers were detected (>10 μg/ml) in the serum of SCID-hu mice four weeks after implantation of human MM cells to transplanted human bones, at which time treatment with antibodies (2 mg/kg) or bortezomib (1 mg/kg) began. Human IgG titers increased steadily in control treated SCID-hu mice over the course of experimentation to reach maximal concentrations of 40±5 μg/ml just before sacrifice (FIG. 18B and FIG. 19). […] Two independent experiments were performed with similar results (FIG. 18B and FIG. 19), each with MM cells from two different patient donors (n=4).
Human fetal femurs and tibias, obtained at 17 to 22 gestational weeks, were cut into fragments and implanted subcutaneously in SCID mice (SCID-hu) at age 6 to 8 weeks. Each animal was implanted with one bone fragment. Four weeks after bone implantation, 2 to 14×10^6 bone marrow cells from each patient (two patients per experiment for a total of four patients in two independent experiments, n=4), containing>20% plasma cells were injected directly into the human bone of 6 to 8 SCID-hu mice in a final volume of 30 to 40 μl of phosphate-buffered saline (PBS). One group of mice was implanted with bone only and served as “healthy” bone control. Mouse sera were serially monitored for human immunoglobulin (hIg) and the isotype levels were used as an indicator of myeloma cell growth by elisa. When hIg level reached 10 μg/mL or higher in 2 consecutive measurements after 4 weeks of injection of the tumor cells, the mice were divided into four groups to yield similar mean hIgG levels between groups, each group comprising mice grafted with MM cells from the different patient donors used in each experiment. The four treatment groups were: healthy control group (no myeloma cells injected and no drug treatment), isotype control group (myeloma cells injected and treated with isotype control IgG, 2 mg/kg, i.p., twice weekly), BI505 group (myeloma cells injected and treated with BI505, 2 mg/kg, i.p., twice weekly) and bortezomib group (myeloma cells injected and treated with 1 mg/kg, i.p., twice weekly). In some graphs hIgG levels were normalized to pretreatment (4 weeks) levels and the percent increase or decrease in hIgG levels as a function of treatment and time was analyzed. Normalized data from animals receiving the same treatment (control IgG, BI-505 or bortezomib) but grafted with MM cells from each of the four different patient donors in the two experiments were pooled and statistical difference was assessed by grouped 2-way ANOVA test and Bonferroni's posttest using GraphPad Prism 5 software. Patient myeloma cells were taken after informed consent and with the approval of the local ethics committee. For x-radiography evaluation and quantification of bone mineral density (BMD) mice in the four groups were sacrificed and the implanted human bones were taken out and fixed in 10% formalin solution. Radiographs were taken with an AXR Minishot-100 beryllium source instrument (Associated X-Ray Imaging Corp., Haverhill, Mass., USA) and 100 s exposure at 30 kV. […]

[1] = system: endothelial cells (HUVEC, HMVEC); assay: HUVEC and HMVEC apoptosis assay; type: cell-based; conditions: resting or IFN-γ activated HUVEC/HMVEC, antibody cross-linked or not
Method: (FIG. 23G) Antibody-induced endothelial cell apoptosis. HUVEC or HMVEC endothelial cells were incubated with paclitaxel (positive control), BI-505 or isotype control IgG in the presence or absence of cross-linking mAb. Apoptosis was measured by flow-cytometry following staining of cells with Annexin V-AF488.
Based on BI-505's documented ability to confer Fc:FcγR-dependent antitumor activity in malignant B cells, and a proposed general negative role for complement activation with regard to antibody tolerability (Lim et al.; van der Kolk et al., 2001), direct cytotoxic effects (PCD, ADCC, and CDC) of BI-505 in ICAM-1-expressing human peripheral blood B cells and endothelial cells were examined.
HUVEC (Cascade Biologics, pool of donors) and HMVEC (Cascade Biologics) were plated in 6-well plates (80 000-120 000 cells/well) in the presence or absence of 200 U/mL IFNγ, in order to induce ICAM-1 expression. Media was changed the day before apoptosis-induction experiments were performed and titrated concentrations of BI-505, enlimomab or isotype control antibody were added to the cells, in the presence or absence of cross-linking Fab (ab′)2 (same as the B-cell protocol). […] Necrotic cells were identified by increased fluorescence in the FL-4 channel and apoptotic cells by increased signal in the FL-1 channel on a flow cytometer (FACSCalibur, BD Bioscience).

mouse FcγRIV = target: T1, mouse FcγRIV (Mus musculus, UniProt A0A0B4J1G0); assay: BiaCore analysis of BI-505 Fc-variant binding to FcγR
T1 construct: made in house; host or cells: HEK293E cells (transient)
T1 sequence (A0A0B4J1G0 21-249): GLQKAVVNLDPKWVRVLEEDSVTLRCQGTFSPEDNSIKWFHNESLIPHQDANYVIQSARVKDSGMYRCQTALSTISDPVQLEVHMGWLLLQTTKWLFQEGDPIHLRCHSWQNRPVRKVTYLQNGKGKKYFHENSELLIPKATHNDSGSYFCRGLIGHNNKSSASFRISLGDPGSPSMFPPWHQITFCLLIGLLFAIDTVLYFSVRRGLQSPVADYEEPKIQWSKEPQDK
Method: (FIG. 20B) BiaCore analysis of BI-505 Fc-variant antibodies binding to mouse FcγRIV.
(§1) His-tagged human FcγRIIIa and mouse FcγRIV were transiently expressed in HEK293E cells, purified using Ni-NTA chromatography, and characterized by SDS-PAGE and/or Biacore. Surface plasmon resonance (SPR) measurements were performed using a Biacore 3000 instrument. Goat F(ab)′2 α-human-F(ab)′2 fragments (Jackson Laboratories) were immobilized with a CM-5 chip using a standard amine coupling protocol. BI-505 (IgG1) and IgG4 or IgG1 297Q variants of BI-505 were diluted to 15 and 60 μg/mL respectively and added to the surface at 10 μL/min for 3 min. His-tagged human FcγRIIIa or mouse FcγRIV was pre-incubated with an α-HIS antibody (R&D Systems) at a 2:1 molar ratio before addition to the chip surface, 30 μL/min, for 1 min. After each cycle the surface was regenerated twice with glycine buffer pH 1.7.

human FcγRIIIa = target: T2, human FcγRIIIa (Homo sapiens, UniProt P08637); assay: as above
T2 construct: made in house; host or cells: HEK293E cells (transient)
Method: (FIG. 20C) BiaCore analysis of BI-505 Fc-variant antibodies binding to human FcγRIIIa.
as §1

RPMI-8226 cells = assay: Macrophage ADCP; type: cell-based; conditions: RPMI-8226, human macrophages
Method: (§2) Cultured macrophages were detached and plated in flat 96-well plates at 50 000 cells/well and placed in 37° C. CFSE-stained target cells were incubated with antibodies for up to 1 hr on ice. After washing, the different cell solutions were added to the culture plates containing macrophages at a ratio of 5:1 (Target cells:Macrophages). Thereafter, the culture plates were incubated at 37° C. for 1-2 hr (primary patient MM cells) or 16 hr (RPMI-8226 cells). The percentage of macrophages that had phagocytosed tumor cells (CFSE^+, CD206^+) per total analyzed macrophages was determined following gating and acquisition of 5000 CD206^+ cells/sample.
(§3) Buffy coats from healthy human donors were ordered through the local blood central at Lund University Hospital and Halmstad Hospital. Peripheral blood mononuclear cells (PBMCs) were first extracted using Ficoll-Paque PLUS (GE Healthcare Life Sciences), followed by isolation of monocytes with CD14 MicroBeads and MACS separation (Miltenyi Biotec). The monocytes were cultured in RPMI 1640 medium with 10% heat-inactivated FBS (Invitrogen) and 25 ng/mL of recombinant human M-CSF (R&D Systems) for 6-14 days, causing differentiation into macrophages. Medium with M-CSF was changed every 2-3 days upon initiation of cultures.
(§4) RPMI-8226 cells (ATCC) were continuously cultured in RPMI 1640 medium supplemented with 10 mM HEPES, 1 mM sodium pyruvate and 10% FBS. For multiple myeloma cells, freshly isolated bone marrow samples were donated by patients at Lund University Hospital and subsequently processed with Ficoll-Paque PLUS. Negative isolation of malignant plasma cells was then performed using the Plasma Cell Isolation Kit II according to the manufacturer's instructions (Miltenyi Biotec).
(§5) At least 4 h before co-culture with target cells the cultured macrophages were detached with Accutase (Sigma Aldrich), before plated in flat 96-well plates at 50 000 cells/well and placed in 37° C. […] After washing, the different cell solutions were added to the culture plates containing macrophages at a ratio of 5:1 (Target cells:Macrophages). Thereafter, the culture plates were incubated at 37° C. for 1-2 hr (primary patient MM cells) or 16 hr (RPMI-8226 cells). Next, samples were stained with APC-conjugated anti-CD206 antibody (BD Biosciences), before harvested by scraping the culture plate wells. The resulting cell solutions were then analyzed by flow cytometry, where CD206^+ macrophages were gated and acquired at 5000 cells/sample. A cut-off level identifying CFSE^+, CD206^+ double positive (phagocytic) macrophages was set for each experimental sample series. This level differed between the individual assays since the magnitude of basic (unstimulated) phagocytosis varied (different donors and time-points) among the experiments.

[2] = system: primary patient's MM cells; assay: Macrophage ADCP; type: cell-based; conditions: human macrophages
Method: as §2, §3, §4, §5

[3] = mouse, 2 mg/kg
Method: Blood samples collected from the vena cava were centrifuged at 2500 g for 15 min to obtain serum and the samples were stored at −20° C.
Sera were prepared from blood samples collected from the vena saphena from 3 animals in each group at different time-points during the course of in vivo experimentation. Briefly, ELISA plates were coated over night with human ICAM-1 protein. The following day, plates were incubated with the serum samples. Biotinylated goat-anti-BI-505 was used for detection of BI-505 in the serum samples. Sera were analysed by ELISA to determine BI-505 trough levels. Trough BI-505 serum concentrations were then plotted as a function of dose and were fitted using five parameter log-log curve and XLfit software (IDBS, Guildford, United Kingdom).

ARH-77 tumors = assay: SCID/ARH-77 subcutaneous xenograft model; conditions: established ARH-77 tumors
Method: For subcutaneous grafting, 1-5×10^6 tumor cells (RPMI-8226, NCI-H929, EJM, OPM-2, ARH-77, or Daudi) were subcutaneously injected at a volume of 100 μl into the left flank of anesthetized mice as described in the Supplemental Information. […] Treatment with saline, isotype control IgG, bortezomib, lenalidomide, dexamethasone, or BI-505 started on day 5 (RPMI-8226). Treatment with melphalan started on day 10. BI-505 or isotype IgG mAb was administered i.v. at 2 mg/kg/inj twice weekly for 8 weeks; bortezomib at 1 mg/kg/inj once weekly for 8 weeks; lenalidomide orally at 2 mg/kg/inj for 2 cycles consisting of 5 days of treatment and 2 days of wash out; melphalan i.v. at 3 mg/kg/inj once weekly for 8 weeks; and dexamethasone at 6 mg/kg/inj three times weekly for 2 weeks.
Mice were anaesthetized with a mixture of sevofluran and oxygen prior to myeloma cell inoculation and 1-10×10^6 myeloma cells were then subcutaneously injected in a volume of 100 μl into the left flank. Treatment with antibodies by intraperitoneal injection started either 1 day after cell inoculation (prophylactic model) or when tumors reached approximately 100 mm^3 (established model). Antibodies were administered in 200 μL of PBS. Treatment with PBS only or isotype IgG were used as controls. Macrophages or NK-cells were depleted by i.p. administration of 0.1 ml clodronate liposomes (Clophosome-A, FormuMax, Scientific Inc. Palo Alto, USA) or 20 μl anti-asialo GM1 pCI Ab (CL8955, Cedarlane Laboratories Limited, Canada) respectively, starting one day prior to antibody treatment, followed by administration twice weekly for a total of three weeks, PBS was used as control.
Tumor size was measured using a digital calliper and tumor volumes were calculated according to the formula width^2×length×0.52, as previously described (Cao et al., 1999).
Statistical analyses of tumor growth inhibition relative to control antibody treatment were carried out using Kruskal-Wallis nonparametric ANOVA with Dunn's multiple comparisons test or Mann-Whitney non-parametric analysis, as indicated in the figure legends.

T2 sequence (P08637 17-254): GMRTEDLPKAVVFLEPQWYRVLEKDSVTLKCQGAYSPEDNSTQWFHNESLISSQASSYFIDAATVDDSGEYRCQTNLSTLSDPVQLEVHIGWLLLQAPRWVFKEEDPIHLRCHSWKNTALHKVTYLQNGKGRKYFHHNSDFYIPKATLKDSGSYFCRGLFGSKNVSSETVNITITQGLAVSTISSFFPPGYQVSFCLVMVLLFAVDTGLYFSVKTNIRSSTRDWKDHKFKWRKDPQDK

binding to mouse FcγRIV, order (mouse FcγRIV): IgG1 N297Q<IgG4<IgG1
binding to human FcγR (human FcγRIIIa): did not bind to human FcγR
B1: BI-505 IgG1 N297Q: BI-505 variant with abolished FcγR-binding (antibody, V domains shown)
VH: EVQLLESGGGLVQPGGSLRLSCAASGFTFSNAWMSWVRQAPGKGLEWVAFIWYDGSNKYYADSVKGRFTISRDNSKNTLYLQMNSLRAEDTAVYYCARYSGWYFDYWGQGTLVTVSS
VL: QSVLTQPPSASGTPGQRVTISCTGSSSNIGAGYDVHWYQQLPGTAPKLLIYDNNNRPSGVPDRFSGSKSGTSASLAISGLRSEDEADYYCQSYDSSLSAWLFGGGTKLTVLG
ADCP (RPMI-8226 cells): did not confer ADCP
ADCP [2]: did not confer ADCP
In vivo serum concentrations [3]: 9.6 ± 3 µg/mL
in vivo antitumor activity of Fc-variants, order (ARH-77 tumors): IgG1 N297Q<IgG4<IgG1

binding to mouse FcγRIV, order (mouse FcγRIV): IgG1 N297Q<IgG4<IgG1
B2: BI-505 IgG4: BI-505 variant with reduced FcγR-binding compared to wildtype BI-505 IgG1 (antibody, V domains shown)
VH: B1 VH
VL: B1 VL
In vivo serum concentrations [3]: 13 ± 3.1 µg/mL
in vivo antitumor activity of Fc-variants, order (ARH-77 tumors): IgG1 N297Q<IgG4<IgG1

Continued, molecule first:

Molecule: CC(C)C[C@H](NC(=O)[C@H](Cc1ccccc1)NC(=O)c1cnccn1)B(O)O [bortezomib, reference compound]
bone osteoclasts (primary patient MM cells; TRAP staining, compared to control-treated mice): reduced numbers of bone osteoclasts
serum human IgG levels (primary patient MM cells; antibody 2 mg/kg or bortezomib 1 mg/kg twice weekly): halted or reduced serum human IgG levels to below pre-treatment levels

Molecule: CC(=O)O[C@H]1C(=O)[C@@]2(C)[C@H]([C@H](OC(=O)c3ccccc3)[C@]3(O)C[C@H](OC(=O)[C@H](O)[C@@H](NC(=O)c4ccccc4)c4ccccc4)C(C)=C1C3(C)C)[C@]1(OC(C)=O)CO[C@@H]1C[C@@H]2O [paclitaxel, reference compound]
cell death in normal cells [1]: induced significant PCD
